Where “and” joins values, the source holds several entries; their conditions need not be identical. Equal entries are not always repeated.
How the values were obtained:
[1] = body fluids; statement of the introduction; cited from earlier work
[2] = MR‐proADM stability in CSF at room temperature (B.R.A.H.M.S. MR‐proADM KRYPTOR fluoroimmunoassay); type: in vitro ADME, human
Protocol: (§1) MR‐proADM concentrations were measured in CSF using the B.R.A.H.M.S. MR‐proADM fluoroimmunoassay on the Brahms Kryptor Gold Analyzer (THERMO […], Hennigsdorf, Germany), which is a fully automated homogeneous phase random access platform. The system uses the TRACE (Time‐Resolved Amplified Cryptate Emission) technology to measure the fluorescence signal emitted by an immunocomplex. MR‐proADM results are expressed in nmol/L. The declared linearity in plasma EDTA samples ranges from 0.21 to 100 nmol/L, with a maximum bias of ±20%. The manufacturer's reference range for EDTA plasma samples is < 0.56 nmol/L, corresponding to the 97.5th percentile of a control series, which disclosed a median value of 0.38 nmol/L. The Limit of Detection (LoD) is 0.09 nmol/L, while the Limit of Quantitation (LoQ) is 0.21 nmol/L (IFU_B.R.A.H.M.S. MR‐proADM KRYPTOR assay; 07 April 2022; Thermo Scientific, Hennigsdorf, Germany). This MR‐proADM immunoassay is currently certified only for plasma‐EDTA blood samples, and the manufacturer recommends immediate centrifugation to preserve molecular stability at room temperature (18°C–25°C) or at 2°C–8°C up to 24 h. Afterwards, samples should be aliquoted and frozen at −20°C or below. Plasma samples can be kept frozen up to 14 days, and the analyte is considered stable for up to 4 freeze/thaw cycles.
(§2) According to the recommendations in plasma, MR‐proADM was measured in clear CSF samples after centrifugation to avoid interference by cells or other microparticles. Bloody CSF samples were discarded. The first step was aimed at assessing MR‐proADM stability in CSF as a function of different storage temperatures and storage time after collection. To test room temperature stability in CSF, we measured MR‐proADM in 10 fresh samples (T0) and after 12, 24, and 48 h (T1, T2, T3) on the bench (25°C). To test recovery after storage at −20°C, we measured MR‐proADM concentration in 29 CSF samples stored frozen for less than 15, 16 to 60, and more than 60 days. Finally, to test recovery after storage at −80°C, we measured MR‐proADM concentration in 25 CSF samples before and after a variable period of storage at −80°C. The second step of our study was to evaluate the analytical performance of the B.R.A.H.M.S. MR‐proADM method using CSF samples. For this purpose, we evaluated the repeatability and the within‐laboratory precision of this assay. Due to the small amount of CSF volume obtained from each residual sample, 58 CSF samples were pooled in 3 subgroups according to their MR‐proADM values, thus creating 3 pools of about 5 mL volume each, characterized by low, medium, and high MR‐proADM concentration. These pools were finally stored at −20°C.
(§3) To assess the difference between measures of MR‐proADM in fresh samples and after storage at room temperature, at −20°C, and at −80°C, we used the Wilcoxon matched‐paired T test, considering significant p < 0.05.

[3] = MR‐proADM stability in CSF samples stored at −80°C; type: in vitro ADME, human
Protocol: as §1, §2, §3

[4] = plasma‐EDTA, ref IFU_B.R.A.H.M.S. MR‐proADM KRYPTOR assay, 07 April 2022, cited from earlier work
Protocol: MR‐proADM concentrations were measured in CSF using the B.R.A.H.M.S. MR‐proADM fluoroimmunoassay on the Brahms Kryptor Gold Analyzer (THERMO […], Hennigsdorf, Germany), which is a fully automated homogeneous phase random access platform. The system uses the TRACE (Time‐Resolved Amplified Cryptate Emission) technology to measure the fluorescence signal emitted by an immunocomplex. MR‐proADM results are expressed in nmol/L. The declared linearity in plasma EDTA samples ranges from 0.21 to 100 nmol/L, with a maximum bias of ±20%. The manufacturer's reference range for EDTA plasma samples i ...

[5] = MR‐proADM stability in CSF samples stored at −20°C; type: in vitro ADME, human; settings: for Mean difference pre and post freezing: mean of samples
Protocol: as §1
as §2, with “−20°C. […]” for “−20°C.”

## Mid‐regional proADM (ELRMSSSYPTGLADVKAGPAQTLIRPQDMKGASRSPEDSSPDAARIRV; MR-proADM; UniProt P35318 45-92, looked up, fragment) [MR‐proADM]
[1]
  half‐life compared with ADM (in words): longer half‐life
[2]; CSF on the bench at room temperature (25°C) for 12 h, individual samples S1–S10, one line per sample, p = 0.2918 vs fresh
  MR‐proADM concentration, After 12 h: 0.45 nmol/L and 2.67 nmol/L and 0.80 nmol/L and 1.11 nmol/L and 1.23 nmol/L and 0.91 nmol/L and 1.07 nmol/L and 0.96 nmol/L and 1.63 nmol/L
[2]; CSF on the bench at room temperature (25°C) for 24 h, individual samples S1–S10, one line per sample, p = 0.6760 vs fresh
  MR‐proADM concentration, After 24 h: 0.51 nmol/L and 2.61 nmol/L and 0.80 nmol/L and 1.15 nmol/L and 1.25 nmol/L and 0.93 nmol/L and 1.09 nmol/L and 0.92 nmol/L and 1.67 nmol/L
[2]; CSF on the bench at room temperature (25°C) for 48 h, individual samples S1–S10, one line per sample, p = 0.1515 vs fresh
  MR‐proADM concentration, After 48 h: 0.45 nmol/L and 2.74 nmol/L and 0.78 nmol/L and 1.14 nmol/L and 1.27 nmol/L and 0.93 nmol/L and 1.12 nmol/L and 0.97 nmol/L and 0.99 nmol/L and 1.64 nmol/L
[2]; CSF, 25°C, 12, 24 and 48 h, n = 10 samples, no significant difference from fresh
  Stability in CSF samples stored at room temperature (in words): highly stable
[2]; CSF, room temperature (25°C)
  Storage time at room temperature over which MR‐proADM remains highly stable in CSF: ≤ 48 h
[2]; T0 baseline, clear centrifuged CSF, 10 individual samples S1–S10, one line per sample, TRACE fluoroimmunoassay, Kryptor
  MR‐proADM concentration, Fresh: 0.45 nmol/L and 2.67 nmol/L and 0.79 nmol/L and 1.15 nmol/L and 1.23 nmol/L and 0.92 nmol/L and 1.07 nmol/L and 0.94 nmol/L and 0.98 nmol/L and 1.65 nmol/L
[3]; 25 CSF samples, variable storage time at −80°C
  Stability in CSF samples stored at −80°C (in words): quite stable
[3]; CSF stored at −80°C, 25 samples
  Decrement, half of the samples: ≤ 10%
[3]; CSF stored at −80°C, p < 0.001 vs fresh
  Loss of recovery / decrement versus fresh, majority of cases: less than 10%
[3]; CSF, −80°C
  Storage time at −80°C with very good stability: at least 24 months
[3]; baseline before storage at −80°C, 25 individual CSF samples S1–S25, one line per sample
  MR‐proADM concentration, Fresh: 0.55 nmol/L and 0.56 nmol/L and 0.77 nmol/L and 0.51 nmol/L and 0.53 nmol/L and 0.59 nmol/L and 0.66 nmol/L and 0.70 nmol/L and 0.89 nmol/L and 1.00 nmol/L and 0.43 nmol/L and 0.57 nmol/L and 0.64 nmol/L and 0.69 nmol/L and 0.75 nmol/L and 0.62 nmol/L and 0.71 nmol/L and 0.73 nmol/L and 0.79 nmol/L and 0.54 nmol/L
[4]; room temperature (18°C–25°C) or 2°C–8°C
  Time of molecular stability after centrifugation: up to 24 h
[4]; −20°C or below
  Time plasma samples can be kept frozen: up to 14 days
[4]
  Freeze/thaw cycles over which the analyte is considered stable: up to 4 freeze/thaw cycles
[5]; CSF stored at −20°C for less than 15 days
  Mean difference pre and post freezing: 14.2%
[5]; CSF stored at −20°C for more than 60 days
  Mean difference pre and post freezing: 18.6%
[5]; CSF stored at −20°C from 16 to 60 days
  Mean difference pre and post freezing: 15.9%
[5]; CSF stored at −20°C, worst cases
  Percentage reduction in some samples: up to 50%

Reference: article PMC12217647, “Mid‐Regional Proadrenomedullin Can Be Reliably Measured in Cerebrospinal Fluid to Improve Diagnosis of Central Nervous System Diseases” (Journal of Clinical Laboratory Analysis, 2025)
